Assay results from paper PMC11960969, “Mdga2 deficiency leads to an aberrant activation of BDNF/TrkB signaling that underlies autism-relevant synaptic and behavioral changes in mice” (PLOS Biology, 2025).

System: hippocampal proteins
Experiment: DIA quantification proteomics, hippocampus of Mdga2+/- vs WT mice
Set-up: species or system mouse
Details: S3 Table, downregulated DEPs; for log2FC: Mdga2+/- vs WT mouse hippocampus (HET-HIP-VS-WT-HIP), SE, pvalue and adj_pvalue in own columns c3-c5; for Class: regulation class of the protein, HET-HIP-VS-WT-HIP
Method in brief: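 Hippocampi from 1.5–2-month-old male Mdga2+/− mice and WT littermates; 100 μg protein trypsin-digested, peptides high-pH fractionated. DDA-built spectral library, DIA by nano-LC–MS/MS with Spectronaut and mProphet QC. DEPs called at fold change >1.1 and p <0.05.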

Row | Molecule | log2FC | Class
1 | sp¦Q8BZ60¦STON2_MOUSE (protein, UniProt Q8BZ60 1-895, looked up) Stonin-2: MTTLDHVIATHQSEWVSFSEEPLFPTPLEGGTEEHFPGLSSSSERSESSSGENHVVDEGSQDLSHSEQDDSSEKMGLISEAASPPGSPVQPTPDLASAISNWVQFEDDTPWSSTSPPHKETALTLTMPCWTCPSFDSLRRCPLTSESSWTTHSEDTSSPSVAPSYTDLQLINTEEQASGRASGTDSTDNSSSLQEDEEVEMEAISWWAGSPAMNGHPAAPPVTTARFPSWVTFEDNEVGCPSPPVPSPKKPNTPSAATAAPDVPFNSTGSFKRDRPKSTLMNLPKVQKLDISSLNRPPSVIEAPPWRATNPFLNETLQDVQPSPINPFSAFFEEQERRSQNSSVSSTTGKSQRDSLIVVYQDAISFDDSGKSQPHPDAIEKLKQLQIDDPDPVGNTALPDDDPTASVELDAPSPASALSQPRDGWPMMLRIPEKKNIMSSRHWGPIYIKLTASGYLQLYYEQGLEKPFREFKLEICHEVSEPRLQNYDENGRIHSLRIDRVTYKEKKKYQPKPAVAHAAEREQVIKLGTTNYDDFRSFIHAVQDRLMDLPVLSMDLSTVGLNYLEEEITVDVRDEFSGTVGKGDNQILQHHVLTRIHILSFLSGLAECRLGLNDILIKGNEIVSRQDIMPTTTTKWIKLHECRFHGCVDEDVFNSSRVILFNPLDACRFELMRFRTVFAEKTLPFTLRTAASINGAEVEVQSWLRMSPGFSSNRDPLTQVPCENVMVRYPVPSEWVKNFRRDSVLGEKSLKAKVNRGASFGSAGASGSEPVMRVTLGTAKYEHAFNSIVWRINRLPDKNSASGHPHCFFCHLELGSDREVPSRFANYVNVEFSMPTTSASKAAVRSVSVEDKPDVRKWVNYSAHYSYKVEIEQKKSLKPDFEGEDLENPKECGVQ | -1.549 | Down
2 | sp¦Q9EPQ7¦STAR5_MOUSE (protein, UniProt Q9EPQ7 1-213, looked up) StAR-related lipid transfer …: MDPSWATQESEAVAEKVLRYRRDASGWKKCREGNGVSISWRPSEEFPGNLYRGEGILCGTPEEVWDCIKPVASGLREKWDDNVSSFEIVQSITDMLCVSRTSTPSAAMKLISPRDFVDLVLVKKYEDGTISSNATHVEHPLCPPKPGFVRGFNHPCGCFCEPLPGDPNKTNLVTFFQTDLSGYLPQSVVDSFFPRSMAEFYPNLQKAVRKFHH | -1.896 | Down
3 | sp¦P43135¦COT2_MOUSE (protein, UniProt P43135 1-414, looked up) COUP transcription factor 2: MAMVVSTWRDPQDEVPGSQGSQASQAPPVPGPPPGAPHTPQTPGQGGPASTPAQTAAGGQGGPGGPGSDKQQQQQHIECVVCGDKSSGKHYGQFTCEGCKSFFKRSVRRNLSYTCRANRNCPIDQHHRNQCQYCRLKKCLKVGMRREAVQRGRMPPTQPTHGQFALTNGDPLNCHSYLSGYISLLLRAEPYPTSRFGSQCMQPNNIMGIENICELAARMLFSAVEWARNIPFFPDLQITDQVALLRLTWSELFVLNAAQCSMPLHVAPLLAAAGLHASPMSADRVVAFMDHIRIFQEQVEKLKALHVDSAEYSCLKAIVLFTSDACGLSDVAHVESLQEKSQCALEEYVRSQYPNQPTRFGKLLLRLPSLRTVSSSVIEQLFFVRLVGKTPIETLIRDMLLSGSSFNWPYMAIQ | -1.636 | Down
4 | sp¦O54983¦CRYM_MOUSE (protein, UniProt O54983 1-313, looked up) Ketimine reductase …: MKRAPAFLSAEEVQDHLRSSSLLIPPLEAALANFSKGPDGGVMQPVRTVVPVAKHRGFLGVMPAYSAAEDALTTKLVTFYEGHSNTAVPSHQASVLLFDPSNGSLLAVMDGNVITAKRTAAVSAIATKLLKPPGSDVLCILGAGVQAYSHYEIFTEQFSFKEVRMWNRTRENAEKFASTVQGDVRVCSSVQEAVTGADVIITVTMATEPILFGEWVKPGAHINAVGASRPDWRELDDELMRQAVLYVDSREAALKESGDVLLSGADIFAELGEVISGAKPAHCEKTTVFKSLGMAVEDLVAAKLVYDSWSSGK | -1.898 | Down
5 | sp¦P50172¦DHI1_MOUSE (protein, UniProt P50172 1-292, looked up) 11-beta-hydroxysteroid …: MAVMKNYLLPILVLFLAYYYYSTNEEFRPEMLQGKKVIVTGASKGIGREMAYHLSKMGAHVVLTARSEEGLQKVVSRCLELGAASAHYIAGTMEDMTFAEQFIVKAGKLMGGLDMLILNHITQTSLSLFHDDIHSVRRVMEVNFLSYVVMSTAALPMLKQSNGSIAVISSLAGKMTQPMIAPYSASKFALDGFFSTIRTELYITKVNVSITLCVLGLIDTETAMKEISGIINAQASPKEECALEIIKGTALRKSEVYYDKSPLTPILLGNPGRKIMEFFSLRYYNKDMFVSN | -1.766 | Down
6 | sp¦Q5PR69¦CRAD_MOUSE (protein, UniProt Q5PR69 1-1291, looked up) Capping protein-inhibiting …: MGARAFSHDSIFIPDGGAESEQTVQAMSQDNILGKVKTLQRQLGKNIKFGQRPSNAIPMKKAGSTDASSEEDFVLTSPMEIVTQQDIVPSDTENKSSDTPSSSSPLNLPEAGSDMEEKVAPVKPSRPKRHLSSAGTIESVNLDAIPLAIARLDNSAARHKLAVKPKNQRVSRKHRWLAQDRQNEPGSFESQSSLDQNGQLGEDKHIWHGEEPEPLESHEEKRLHEEYWRELEAKCKRQKAEAAEKRRQEEQRRQALERRLWEESLRQELLEEEEEGEEEEEVKEEGEEGEEVGLQPRAGKVPPEEGHQSGPEEQRCTEQELGGADDPARLEAEERRREQEEAERQAEKLRQREAERQEEEQKQREAERQEEEARQCEAERQAEKLRQREAERQEEEARQREAERQAEKLRQREAERQEEELRQREEAERQEKLRQRDAESQEEELRQREAERQRAQEEDAKGMLQEEEEEAKRIEELKGKETPEPLVEEGPQSPEGESQPWLTDDADQRSPLQRDLEKPGEREREDLESAGQREIAEEPRGEGEPAEQSGDLDAHCGGVDGEGKETAQTDSPQPQERQMEGTPAPEENEATAADIDRKVEELRWQEVDERQTMPRPYTFQVSSGSRQILFPKVNLSPVTPAKDASLAPAAQEPPAPRGAASHALPSALSIPHTAILVTGAQLCGPAVNLSQIKDTACKSLLGLSEEKRPMDVPTVESRAGSGKSRPAPESPSNAAALAEWASIRSRILKNSEGDQRGDREPARAGDEPVPRARCDSRGNVRRTPPVNAKFSIMPAWQKFSDSGAETFRQSLDGESGRKKPGLAPSEETAPQPHAAAQQEVSQEPPDTTDGCKFAKDLPSFLVPGLPSPQKAASRTESTTTLDSETTSDVGNPDPAMPGGEEKASPFGIKLRRTNYSLRFHCDQQAEQKKKKRHSSTGDSVGGATPATGSVSGESEPEATFLKHGPSLPQERKPALSPRKDSAESHSSGHYVAVAQSGLPPASGQTPAPEQDRAVSKMPSMQKPALAPKPASQTPPSSPLSKLSRPHLVELLARRAGKLDSEPSETAKESSDNQPPSPSLPEELKGQKRDEKDVPEKKPASPPLPAGQQERPSLIPETGRKEKPVLQSRHSLDGSKVTEKVETAQPLWITLALQKQKGFREQQATREERKQAREAKQAEKLSKETVSVSLQPGSSRASKTAPVHKPAAPSEEKKPETAVSRLQRREQLKKSNTLPTSVTVEISDSAPSAALVKDVTKRFSTPDAAPVSTEPAWLALAKRKAKAWSDCPQIIK | -1.882 | Down
7 | sp¦Q3TVI8¦PBIP1_MOUSE (protein, UniProt Q3TVI8 1-727, looked up) Pre-B-cell leukemia …: MASCPDSDNSWVLAGSENLPVETLGPEPRMDPESEGASQALRDSSKADGKELAGTLDGEEKLFQTESSQRETAVLTESAAKGTLGADGHGTEAPGDTVVQEDSQETPVATSLGPDTQDLESEIHPQNLPSSPRAVWKEHRCSSSDDDTDVDVEGLRRRRGREPSSSQPVVPVDVEDQAKGEGIGGELGISLNMCFLGALVLLGLGILLFSGTLLEPETGPMEEAELQVFPETGPETELVETLGNRQDEIEHLQASSVPPDSVPSLQSMGFLLDKLAKENQDIRLLQAQLQAQKEELQSLLHQPKGLEEENARLREALQQGKTSHQALESELQQLRARLQGLEANCVRGVDGVCLNWGGDPQDGKATKEQGHKGQEPDPSLLEQHKQLEAEAKALRQELQRQWQLLGSVHWDLQRGLRDAGRGAPAHPGLAELGHMLAQTLQDLENQGINTGRSPNDSEAWHQKKPHTQSPREWGGKEKWRGGQRDQKAEHWKPRKEESGQERQRSWRDEGREHTGRWREDRLRADESGSRKDSKRQDPKVHPRKDGNSHSVERQKHSWGKDNSPDALSSWEELLRRKYRPPQGCSGVADCARQEGLALFGVELAPVRQQELASVLREYLSRLPWAGQLTKQLPLSPAYFGEDGIFRHDRLRFRDFVDALEDSLEEVALKQTGDDDEVDDFEDFVFGHFFGDKALKKRSRKKEKHSWNPRVVGPREEHSRHPHHYHQG | -1.692 | Down
8 | sp¦Q8BUB4¦WDFY2_MOUSE (protein, UniProt Q8BUB4 1-400, looked up) WD repeat and FYVE …: MAAEIQPQPLTRKPILLQRVEGSQEVVNMAVIVPKEEGVISVSEDRTVRVWLKRDSGQYWPSIYHAMPSPCSCMSFNPETRRLSIGLDNGTISEFILSEDYNKMTPVKNYQAHQSRVTMVLFVLELEWVLSTGQDKQFAWHCSESGQRLGGYRTSAVASGLQFDVETRHVFIGDHSGQVTILKLEQENCTLLTSFRGHTGGVTALCWDPVQRVLFSGSSDHSVIMWDIGGRKGTAIELQGHNDKVQALSYAQHTRQLISCGGDGGIVVWNMDVERQETPEWLDSDSCQKCDQPFFWNFKQMWDSKKIGLRQHHCRKCGKAVCGKCSSKRSSIPLMGFEFEVRVCDSCHEAITDEERAPTATFHDSKHNIVHVHFDATRGWLLTSGTDKVIKLWDMTPVVS | -1.823 | Down
9 | sp¦P28076¦PSB9_MOUSE (protein, UniProt P28076 21-219, looked up) Proteasome subunit beta type-9: TTIMAVEFDGGVVVGSDSRVSAGTAVVNRVFDKLSPLHQRIFCALSGSAADAQAIADMAAYQLELHGLELEEPPLVLAAANVVKNISYKYREDLLAHLIVAGWDQREGGQVYGTMGGMLIRQPFTIGGSGSSYIYGYVDAAYKPGMTPEECRRFTTNAITLAMNRDGSSGGVIYLVTITAAGVDHRVILGDELPKFYDE | -1.875 | Down
10 | sp¦Q9D7X1¦KCTD4_MOUSE (protein, UniProt Q9D7X1 1-259, looked up) BTB/POZ domain-containing …: MERKIIRREKEREYEGRHNSVEDAEQGKNCKSTLMTLNVGGYLYITQKQTLTKYPDTFLEGIVNGKILCPFDADGHYFIDRDGLLFRHVLNFLRNGELLLPEGFRENQLLAQEAEFFQLKGLAEEVKSRWEKEQLTPRETTFLEITDNHDRSQGLRIFCNAPDFISKIKSRIVLVSKSRLDGFPEEFSVSSNIIQFKYFIKSENGTRLVLKEDNTFVCTLETLKFEAIMMALKCGFRLLTSLDCSKGSIVHSDALHFIK | -1.758 | Down
